The subject of data set [1] is HeLa Kyoto. As to the kind of experiment: solubility in G1/S (NP-40 vs SDS abundance) (log2 ratio); higher = more soluble. The following applies: cell cycle stage: G1/S.
Data set [2] concerns HeLa Kyoto. Put plainly: melting temperature (median over replicates), in situ; higher = more thermally stable.
Data set [3] relates to HeLa Kyoto. Put plainly: solubility change mitosis vs G1/S (difference of NP-40 vs SDS log2 ratios) (log2 ratio difference); higher = more soluble in mitosis.
Data set [4] relates to HeLa Kyoto. Put plainly: thermal stability score vs G1/S (z-score of summed log2 fold changes over temperatures); higher = more thermally stable than in G1/S.
Setting [5] is: cell cycle stage: early G1 (4.5 h after nocodazole release).

The values that follow come from the supplement of paper PMC5998384.
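Throughout, for melting temperature (median over replicates), in situ: HeLa Kyoto cells synchronized by double thymidine or nocodazole block, proteins quantified by TMT10plex mass spectrometry, three independent biological replicates.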
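Throughout, for solubility change mitosis vs G1/S (difference of NP-40 vs SDS log2 ratios): synchronized HeLa Kyoto cells (double thymidine block for G1/S, nocodazole release for mitosis), protein amounts in NP-40 versus SDS lysates quantified by mass spectrometry, three biological replicates.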
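Throughout, for solubility in G1/S (NP-40 vs SDS abundance): HeLa Kyoto cells arrested at G1/S by double thymidine block, proteins quantified by TMT10plex mass spectrometry in mild NP-40 versus SDS extracts, three biological replicates.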
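Throughout, for thermal stability score vs G1/S (z-score of summed log2 fold changes over temperatures): synchronized HeLa Kyoto cells, proteins quantified by TMT10plex mass spectrometry, three biological replicates, mitosis taken 0.5 h after nocodazole release, G1/S directly after double thymidine block.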

For the sequence “MVQLRPRASRAPASAEAMVDEGQLASEEEEAEHGLLLGQPSSGAAAEPLEEDEEGDDEFDDEAPEELTFASAQAEAREEERRVRETVRRDKTLLKEKRKRREELFIEQKKRKLLPDTILEKLTTASQTNIKKSPGKVKEVNLQKKNEDCEKGNDSKKVKVQKVQSVSQNKSYLAVRLKDQDLRDSRQQAAQAFIHNSLYGPGTNRTTVNKFLSLANKRLPVKRAAVQFLNNAWGIQKKQNAKRFKRRWMVRKMKTKK [NOL7]”, the “solubility in G1/S (log2)” value in the data set with HeLa Kyoto [1] is -1.02. Moreover, the melting temperature in the data set with HeLa Kyoto [2] (cell cycle stage: G1/S) was found to be 56.9 °C; with HeLa Kyoto [2] (cell cycle stage: mitosis), 54 °C. Also, the “solubility change mitosis (log2)” value in the data set with HeLa Kyoto [3] amounted to 0.763. Also, the thermal stability score with HeLa Kyoto [4] (setting [5]) was -0.722; with HeLa Kyoto [4] (cell cycle stage: mitosis), -4.23.

Turning to “MVSHGSSPSLLEALSSDFLACKICLEQLRAPKTLPCLHTYCQDCLAQLADGGRVRCPECRETVPVPPEGVASFKTNFFVNGLLDLVKARACGDLRAGKPACALCPLVGGTSTGGPATARCLDCADDLCQACADGHRCTRQTHTHRVVDLVGYRAGWYDEEARERQAAQCPQHPGEALRFLCQPCSQLLCRECRLDPHLDHPCLPLAEAVRARRPGLEGLLAGVDNNLVELEAARRVEKEALARLREQAARVGTQVEEAAEGVLRALLAQKQEVLGQLRAHVEAAEEAARERLAELEGREQVARAAAAFARRVLSLGREAEILSLEGAIAQRLRQLQGCPWAPGPAPCLLPQLELHPGLLDKNCHLLRLSFEEQQPQKDGGKDGAGTQGGEESQSRREDEPKTERQGGVQPQAGDGAQTPKEEKAQTTREEGAQTLEEDRAQTPHEDGGPQPHRGGRPNKKKKFKGRLKSISREPSPALGPNLDGSGLLPRPIFYCSFPTRMPGDKRSPRITGLCPFGPREILVADEQNRALKRFSLNGDYKGTVPVPEGCSPCSVAALQSAVAFSASARLYLINPNGEVQWRRALSLSQASHAVAALPSGDRVAVSVAGHVEVYNMEGSLATRFIPGGKASRGLRALVFLTTSPQGHFVGSDWQQNSVVICDGLGQVVGEYKGPGLHGCQPGSVSVDKKGYIFLTLREVNKVVILDPKGSLLGDFLTAYHGLEKPRVTTMVDGRYLVVSLSNGTIHIFRVRSPDS [TRIM56]”, the “solubility in G1/S (log2)” value with HeLa Kyoto [1] is -0.379. Besides, the melting temperature with HeLa Kyoto [2] (cell cycle stage: G1/S) was found to be 52.4 °C; in the data set with HeLa Kyoto [2] (cell cycle stage: mitosis), 50.7 °C. The “solubility change mitosis (log2)” value in the data set on HeLa Kyoto [3] worked out at 0.0648. Also, the thermal stability score with HeLa Kyoto [4] (setting [5]) stood at 0.0282; in the data set with HeLa Kyoto [4] (cell cycle stage: mitosis), 0.527.

Take “MVSPATRKSLPKVKAMDFITSTAILPLLFGCLGVFGLFRLLQWVRGKAYLRNAVVVITGATSGLGKECAKVFYAAGAKLVLCGRNGGALEELIRELTASHATKVQTHKPYLVTFDLTDSGAIVAAAAEILQCFGYVDILVNNAGISYRGTIMDTTVDVDKRVMETNYFGPVALTKALLPSMIKRRQGHIVAISSIQGKMSIPFRSAYAASKHATQAFFDCLRAEMEQYEIEVTVISPGYIHTNLSVNAITADGSRYGVMDTTTAQGRSPVEVAQDVLAAVGKKKKDVILADLLPSLAVYLRTLAPGLFFSLMASRARKERKSKNS [DHRS7B]”: in the data set on HeLa Kyoto [1], the “solubility in G1/S (log2)” value is -0.22. The melting temperature stood at 51.6 °C in the data set on HeLa Kyoto [2] (cell cycle stage: G1/S) and 51.4 °C in the data set with HeLa Kyoto [2] (cell cycle stage: mitosis). In addition, the “solubility change mitosis (log2)” value in the data set on HeLa Kyoto [3] is -0.121. The thermal stability score in the data set on HeLa Kyoto [4] (setting [5]) is -0.951; in the data set with HeLa Kyoto [4] (cell cycle stage: mitosis), -0.984.

Turning to “MVSVINTVDTSHEDMIHDAQMDYYGTRLATCSSDRSVKIFDVRNGGQILIADLRGHEGPVWQVAWAHPMYGNILASCSYDRKVIIWREENGTWEKSHEHAGHDSSVNSVCWAPHDYGLILACGSSDGAISLLTYTGEGQWEVKKINNAHTIGCNAVSWAPAVVPGSLIDHPSGQKPNYIKRFASGGCDNLIKLWKEEEDGQWKEEQKLEAHSDWVRDVAWAPSIGLPTSTIASCSQDGRVFIWTCDDASSNTWSPKLLHKFNDVVWHVSWSITANILAVSGGDNKVTLWKESVDGQWVCISDVNKGQGSVSASVTEGQQNEQ [SEC13]”, the “solubility in G1/S (log2)” value with HeLa Kyoto [1] is -0.204. Also, the melting temperature was found to be 50.5 °C in the data set with HeLa Kyoto [2] (cell cycle stage: G1/S) and 50.4 °C in the data set with HeLa Kyoto [2] (cell cycle stage: mitosis). The “solubility change mitosis (log2)” value in the data set on HeLa Kyoto [3] is -0.09. The values for the thermal stability score with HeLa Kyoto [4] (setting [5]) and in the data set on HeLa Kyoto [4] (cell cycle stage: mitosis) were -0.768 and -0.265, respectively.

Take “MVVTRSARAKASIQAASAESSGQKSFAANGIQAHPESSTGSDARTTAESQTTGKQSLIPRTPKARKRKSRTTGSLPKGTEPSTDGETSEAESNYSVSEHHDTILRVTRRRQILIACSPVSSVRKKPKVTPTKESYTEEIVSEAESHVSGISRIVLPTEKTTGARRSKAKSLTDPSQESHTEAISDAETSSSDISFSGIATRRTRSMQRKLKAQTEKKDSKIVPGNEKQIVGTPVNSEDSDTRQTSHLQARSLSEINKPNFYNNDFDDDFSHRSSENILTVHEQANVESLKETKQNCKDLDEDANGITDEGKEINEKSSQLKNLSELQDTSLQQLVSQRHSTPQNKNAVSVHSNLNSEAVMKSLTQTFATVEVGRWNNNKKSPIKASDLTKFGDCGGSDDEEESTVISVSEDMNSEGNVDFECDTKLYTSAPNTSQGKDNSVLLVLSSDESQQSENSENEEDTLCFVENSGQRESLSGDTGSLSCDNALFVIDTTPGMSADKNFYLEEEDKASEVAIEEEKEEEEDEKSEEDSSDHDENEDEFSDEEDFLNSTKAKLLKLTSSSIDPGLSIKQLGGLYINFNADKLQSNKRTLTQIKEKKKNELLQKAVITPDFEKNHCVPPYSESKYQLQKKRRKERQKTAGDGWFGMKAPEMTNELKNDLKALKMRASMDPKRFYKKNDRDGFPKYFQIGTIVDNPADFYHSRIPKKQRKRTIVEELLADSEFRRYNRRKYSEIMAEKAANAAGKKFRKKKKFRN [DNTTIP2]”: the “solubility in G1/S (log2)” value in the data set with HeLa Kyoto [1] is -2.06. The melting temperature in the data set with HeLa Kyoto [2] (cell cycle stage: G1/S) was 48.9 °C; in the data set with HeLa Kyoto [2] (cell cycle stage: mitosis) it was 52.4 °C. Moreover, in the data set on HeLa Kyoto [3], the “solubility change mitosis (log2)” value worked out at 1.04. Besides, the thermal stability score in the data set with HeLa Kyoto [4] (setting [5]) stood at 2.7; in the data set on HeLa Kyoto [4] (cell cycle stage: mitosis), 4.77.
